Where no end group is shown, it is not given here. [ ]: non-standard residue; d: D form. pY = N[C@@H](Cc1ccc(OP(=O)(O)O)cc1)C(=O)O
Assays:
[1] = biological target: T1, wild-type Grb2 (growth factor receptor-bound protein 2), bacterially expressed and purified (UniProt P62993 1-217, Atto488 on the N-terminus of the labelled copy (100 nM); the titrated copy unlabelled); test: MST; monomer–dimer equilibrium of Grb2 in the presence of a saturating concentration of pShc peptide; conditions: both partners purified
T1 construct: cloned into a modified pET28a with a TEV site; also called ^WTGrb2; dGrb2

[2] = biological target: T2, bacterial GFP-tagged Grb2 on GFP-trap beads (smFLIM) (UniProt P62993 1-217); test: FRET or BRET; smFLIM: GFP–Grb2 on GFP-trap beads, RFP–Grb2 added for 1 h, 20 mM Tris-HCl, 50 mM NaCl, pH 8.0; then 10 μM phospho-Shc peptide for an hour; conditions: both partners purified
T2 construct: full-length Grb2; The second copy (FRET acceptor, added in solution) carried RFP (mRFP) instead of GFP; By the order of the cloning sites the fluorescent protein lies before Grb2; pET28a cut at NdeI may add an N-terminal His tag (surmised); also called GFP–Grb2; RFP–Grb2; source: E. coli (pET28a construct)

binding result [1]: binds
binding result [2]: binds
B1: phospho-Shc peptide (peptide)
peptide: EEPPDHQ[pY]YNDFPGK
notes: Printed as EEPPDHQ(pY)YN-DFPGK; also called pShc; source: synthetic peptide, bought: GenScript

Source: article PMC4491180, “Grb2 monomer–dimer equilibrium determines normal versus oncogenic function” (Nature Communications, 2015)
